What was measured:
[1] = target: T1, CXCR4 and CD4 co-expressed on cells (MOLM-13, THP-1, MT-4, PBMC; Jurkat CD4 low) (human, UniProt P61073 1-352; P01730 26-458); test: cell-based or functional assay
[2] = target: T1, CXCR4 and CD4 co-expressed on cells …; test: FACS, THP-1 cells
[3] = target: T1, CXCR4 and CD4 co-expressed on cells …; test: cell-based or functional assay; remark: listed apart in the source
[4] = target: T1, CXCR4 and CD4 co-expressed on cells …; test: FACS, Jurkat E6-1 cells (CXCR4+/CD4 low)
[5] = target: T1, CXCR4 and CD4 co-expressed on cells …; test: cell-based or functional assay; remark: listed apart in the source
[6] = target: T1, CXCR4 and CD4 co-expressed on cells …; test: cell-based or functional assay; remark: listed apart in the source
[7] = target: human CXCR4 (on cells, viral lipoparticles or membrane extracts) (human, UniProt P61073 1-352); test: cell-based or functional assay
[8] = target: T1, CXCR4 and CD4 co-expressed on cells …; test: FACS, MOLM-13 cells (CXCR4+/CD4+)
[9] = target: T2, human CD4, cell-expressed (human, UniProt P01730 26-458); test: flow cytometry on MOLM-13 cells (CD4, no IL12R or IL23R), upper right panel
T2 construct: whole, on cells

[10] = target: T3, human IL-23R extracellular domain Fc-fusion (human, UniProt Q5VWK5 24-355); test: competition ELISA, coated IL-23 + 5 nM IL-23R-Fc
T3 construct: extracellular domain; bought; also called IL-23R-Fc
T3 sequence (looked up): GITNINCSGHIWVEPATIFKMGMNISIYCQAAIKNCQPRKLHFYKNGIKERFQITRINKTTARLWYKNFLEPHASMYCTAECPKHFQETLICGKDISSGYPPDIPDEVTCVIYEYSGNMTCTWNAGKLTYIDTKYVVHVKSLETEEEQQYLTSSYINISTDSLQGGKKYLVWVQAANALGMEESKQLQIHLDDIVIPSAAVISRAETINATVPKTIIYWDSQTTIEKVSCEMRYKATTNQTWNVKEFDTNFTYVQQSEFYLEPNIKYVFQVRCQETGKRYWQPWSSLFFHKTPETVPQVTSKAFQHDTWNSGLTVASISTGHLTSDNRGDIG

[11] = target: T4, human IL12Rβ1, cell-expressed (human, UniProt P42701 24-662); test: flow cytometry on isolated CD8+ T cells of donor D863, anti-Flag detection
T4 construct: whole, on cells; in the context of the heterodimeric receptor; also called IL12Rb1

[12] = target: T3, human IL-23R extracellular domain …; test: competition ELISA, coated IL-23 + IL-23R-Fc; IL-23 competition ELISA of Table 3.3
[13] = target: T5, human IL-23R, cell-expressed (human, UniProt Q5VWK5 24-629); test: cell-based or functional assay
T5 sequence (looked up): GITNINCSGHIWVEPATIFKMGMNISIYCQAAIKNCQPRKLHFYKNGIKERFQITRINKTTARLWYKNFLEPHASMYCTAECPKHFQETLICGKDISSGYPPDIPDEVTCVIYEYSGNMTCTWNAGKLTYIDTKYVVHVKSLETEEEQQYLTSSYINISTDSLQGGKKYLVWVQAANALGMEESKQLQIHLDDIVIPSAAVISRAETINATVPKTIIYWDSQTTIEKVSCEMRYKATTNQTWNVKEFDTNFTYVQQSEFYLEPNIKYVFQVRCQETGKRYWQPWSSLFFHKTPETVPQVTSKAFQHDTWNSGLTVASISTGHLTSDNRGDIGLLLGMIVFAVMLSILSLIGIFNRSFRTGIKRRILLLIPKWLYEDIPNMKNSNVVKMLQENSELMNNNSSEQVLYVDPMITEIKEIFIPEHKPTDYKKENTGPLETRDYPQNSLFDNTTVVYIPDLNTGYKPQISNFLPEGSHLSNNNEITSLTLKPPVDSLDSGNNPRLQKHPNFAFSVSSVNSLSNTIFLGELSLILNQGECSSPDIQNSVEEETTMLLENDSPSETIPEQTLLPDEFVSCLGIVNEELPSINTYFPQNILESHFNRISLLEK

[14] = target: T5, human IL-23R, cell-expressed; test: FACS, Th17-differentiated T cells
[15] = target: T3, human IL-23R extracellular domain …; test: SPR Biacore T100, captured IL-23R-Fc
[16] = target: T6, human IL12Rβ1 extracellular domain Fc-fusion (human, UniProt P42701 24-545); test: competition ELISA, coated IL-12 + IL12Rβ1-Fc
T6 construct: extracellular domain; bought; also called IL12Rβ1-Fc; hIL-12Rβ1-Fc; not shown: Fc part, captured by anti-hIgG

[17] = target: T6, human IL12Rβ1 extracellular domain …; test: competition ELISA, coated IL-23 + IL12Rβ1-Fc
[18] = target: T6, human IL12Rβ1 extracellular domain …; test: SPR Biacore T100, captured IL12Rβ1-Fc
[19] = target: T4, human IL12Rβ1, cell-expressed; test: FACS, activated human T cells
[20] = target: T4, human IL12Rβ1, cell-expressed; test: cell-based or functional assay
[21] = target: T6, human IL12Rβ1 extracellular domain …; test: competition ELISA, coated IL-23 + 2 nM IL12Rβ1-Fc
[22] = target: T6, human IL12Rβ1 extracellular domain …; test: competition ELISA, coated IL-12 + 2 nM IL12Rβ1-Fc
[23] = target: T4, human IL12Rβ1, cell-expressed; test: cell-based or functional assay; remark: listed apart in the source
[24] = target: T2, human CD4, cell-expressed; test: flow cytometry on MOLM-13 cells (CD4, no IL12R or IL23R), lower left panel

Sequence of human CXCR4 (on cells, viral lipoparticles or membrane extracts) (P61073 whole entry): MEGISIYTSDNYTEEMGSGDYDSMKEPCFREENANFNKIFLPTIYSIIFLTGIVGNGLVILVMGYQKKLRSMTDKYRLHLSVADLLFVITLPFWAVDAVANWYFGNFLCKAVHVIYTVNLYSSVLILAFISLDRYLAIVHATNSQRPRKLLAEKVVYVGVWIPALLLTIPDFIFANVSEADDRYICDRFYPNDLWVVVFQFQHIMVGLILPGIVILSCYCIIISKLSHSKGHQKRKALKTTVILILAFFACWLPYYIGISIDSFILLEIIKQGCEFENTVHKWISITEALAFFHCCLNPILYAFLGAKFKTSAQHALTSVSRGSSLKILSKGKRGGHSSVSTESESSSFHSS
T1 sequence (P61073 whole entry, chain 1 of 2, other chains not shown): as the sequence (P61073 whole entry) above

B1: 281F12-35GS-03F11 (bispecific antibody)
chain: EVQLVESGGGLVQAGDSLRLSCAASGRAFSRYAMGWFRQAPGKEREFVAAIGWGPSKTNYADSVKGRFTISRDNAKNTVYLQMNTLKPEDTAVYSCAAKFVNTDSTWSRSEMYTYWGQGTQVTVSSGGGGSGGGGSGGGGSGGGGSGGGGSGGGGSGGGGSEVQLVESGGGSVQPGGSLTLSCGTSGRTFNVMGWFRQAPGKEREFVAAVRWSSTGIYYTQYADSVKSRFTISRDNAKNTVYLEMNSLKPEDTAVYYCAADTYNSNPARWDGYDFRGQGTQVTVSS
notes: also called CXCR4#2-35GS-CD4#8; CXCR4#2-CD4#8
Which “IC50, HIV-1 NL4.3 wt, MT-4” value [1] does the source give for B1 here?
Its value is 0.187 nM.

What about the “IC50, NL4.3 2G12 res., MT-4” value [1] of the same binder?
Its value is 0.11 nM.

And the “IC50, NL4.3 AMD-3100 res., MT-4” value [1]?
The value was 1.13 nM.

And the “IC50, NL4.3 CD4#8 res., MT-4” value [1]?
Its value is 0.31 nM.

What about the “IC50, NL4.3 CXCL-12res., MT-4” value [1] of the same binder?
Its value is 0.433 nM.

And the “IC50, NL4.3 CXCR4#2 res, MT-4” value [1]?
The value was 1.4 nM.

What about the EC50 [2] of the same binder?
Its EC50 is 0.67 nM.

What about the “IC50, HIV-1 HE, MT-4” value [3] of the same binder?
The value was 0.0906 nM.

What about the “IC50, HIV-1 NL4.3, MT-4” value [3] of the same binder?
Its value is 0.187 nM.

What about the “IC50, HIV-2 ROD, MT-4” value [3] of the same binder?
Its value is 0.3 nM.

And the EC50 [4]?
The EC50 was 11 nM.

And the “enhancement vs monovalent CD4#8, HIV-1 BaL, PBMC” value [5]?
Its value is ~200 fold.

What about the “IC50, HIV-1 BaL (R5), PBMC” value [6] of the same binder?
Its value is 2.46 nM.

And the “IC50, HIV-1 NL4.3 (X4), MT-4” value [6]?
The value was 0.24 nM.

And the “IC50, HIV-1 NL4.3 (X4), PBMC” value [6]?
The value was 0.37 nM.

And the “IC50, HIV-1 NL4.3 (X4), U87” value [6]?
Its value is 2.67 nM.

And the “Fold increase vs CXCR4#2, Jurkat E6-1” value [7]?
The value was 0.8 fold.

What about the “Fold increase vs CXCR4#2, MOLM-13” value [7] of the same binder?
The value was 146 fold.

What about the “IC50, SDF-1 chemotaxis, Jurkat E6-1” value [7] of the same binder?
Its value is 110 nM.

What about the “IC50, SDF-1 chemotaxis, MOLM-13” value [7] of the same binder?
Its value is 0.59 nM.

What about the EC50 [8] of the same binder?
The EC50 was 1.1 nM.

B2: IL23R#19: 150D02 (VHH)
VHH: EVQLVESGGGLVQPGGSLTLSCVASGRTFSTDVMGWFRQAPGKEREFVAAHRTSGISTVYAASVKGRFTISRDNAKNTVYLGMKSLKPEDTAVYVCAAGSDASGGYDYWGQGTLVTVSS
notes: also called LG150D02
What does the source list for B2?
binding result [9]: no binding (tested: 1E-6 M); IC50 [10]: 4.7 nM; binding result [11]: no binding (tested: 250 nM); IC50 [12]: 1.7 nM; IC50, IL-23 dependent IL-17 release, PBMC D840 [13]: 100 nM; EC50 [14]: 20 nM; Kd [15]: 11 nM; koff [15]: 0.0081 s⁻¹; kon [15]: 730000 M⁻¹ s⁻¹

B3: IL12Rb1#30: 148C09 (VHH)
VHH: EVQLVESGGGLVQTGGSLRLSCAASGRTPRLVAMGWFRQTPGKEREFVGEIILSKGFTYYADSVKGRFTISRVNAKNTITMYLQMNSLKSEDTAVYYCAGRQNWSGSPARTNEYEYWGQGTLVTVSS
notes: also called IL12Rβ1#30; LG148C09
For B3, which IC50 [16] is on record?
The IC50 was 3.7 nM.

And the IC50 [17]?
Its IC50 is 1.5 nM.

And the Kd [18]?
The Kd was 3.3 nM.

What about the koff [18] of the same binder?
The koff was 0.0015 s⁻¹.

And the kon [18]?
Its kon is 450000 M⁻¹ s⁻¹.

What about the EC50 [19] of the same binder?
The EC50 was 1.3 nM.

What about the “IC50, IL-17 release, PBMC D840” value [20] of the same binder?
Its value is 35.5 nM.

What about the IC50 [21] of the same binder?
The IC50 was 1.5 nM.

What about the IC50 [22] of the same binder?
Its IC50 is 3.7 nM.

What about the “IC50, IL-12 induced IFNγ release, PBMC D840” value [23] of the same binder?
The value was 17 nM.

What about the “IC50, IL-12 induced IFNγ release, T cells D839” value [23] of the same binder?
The value was 140 nM.

Does B3 bind [24]?
Result: no binding (tested: 1E-6 M)

— patent publication US20160251440A1 (Ablynx, published 2016)
